The values that follow come from PMC9535758 (EMBO Reports, 2022).

For the assay, the target named is T1, Human recombinant His-tagged PALB2 (human, UniProt Q86YC2 1-1186).
T1 sequence: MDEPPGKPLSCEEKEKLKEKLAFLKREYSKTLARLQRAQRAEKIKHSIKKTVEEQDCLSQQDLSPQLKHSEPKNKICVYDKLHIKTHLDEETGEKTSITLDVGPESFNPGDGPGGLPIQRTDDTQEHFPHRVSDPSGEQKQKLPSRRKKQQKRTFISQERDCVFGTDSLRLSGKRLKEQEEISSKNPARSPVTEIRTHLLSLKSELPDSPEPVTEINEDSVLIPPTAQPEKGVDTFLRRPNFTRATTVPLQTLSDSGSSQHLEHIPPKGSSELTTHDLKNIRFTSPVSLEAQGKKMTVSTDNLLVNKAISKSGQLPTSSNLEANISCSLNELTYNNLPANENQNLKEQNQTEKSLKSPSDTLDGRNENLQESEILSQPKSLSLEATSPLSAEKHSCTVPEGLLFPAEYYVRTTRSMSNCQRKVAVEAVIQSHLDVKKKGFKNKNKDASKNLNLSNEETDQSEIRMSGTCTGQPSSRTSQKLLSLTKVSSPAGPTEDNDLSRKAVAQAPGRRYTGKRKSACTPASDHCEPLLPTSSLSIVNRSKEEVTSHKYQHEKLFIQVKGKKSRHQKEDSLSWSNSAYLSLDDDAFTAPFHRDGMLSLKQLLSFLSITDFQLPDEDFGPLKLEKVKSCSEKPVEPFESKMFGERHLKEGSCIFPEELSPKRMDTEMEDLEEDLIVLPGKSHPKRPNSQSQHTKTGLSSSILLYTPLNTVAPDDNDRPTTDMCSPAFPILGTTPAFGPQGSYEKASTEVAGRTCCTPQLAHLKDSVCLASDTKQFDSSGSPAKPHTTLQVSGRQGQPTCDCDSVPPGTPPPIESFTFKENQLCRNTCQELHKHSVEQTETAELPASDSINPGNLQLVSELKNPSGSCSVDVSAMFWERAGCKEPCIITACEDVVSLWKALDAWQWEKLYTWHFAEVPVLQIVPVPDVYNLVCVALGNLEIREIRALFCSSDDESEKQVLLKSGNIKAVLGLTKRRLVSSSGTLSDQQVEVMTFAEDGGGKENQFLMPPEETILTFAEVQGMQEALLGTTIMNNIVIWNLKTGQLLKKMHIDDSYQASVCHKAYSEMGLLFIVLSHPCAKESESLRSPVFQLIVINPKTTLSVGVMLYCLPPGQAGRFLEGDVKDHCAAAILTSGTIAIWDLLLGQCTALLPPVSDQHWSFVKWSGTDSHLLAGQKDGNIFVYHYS
The assay is described as follows: pull-down.

For MPIGSKERPTFFEIFKTRCNKADLGPISLNWFEELSSEAP (domain or fragment) [BRCA2_(1-40)HA-His], the binding result is recorded as “binds”.
